Entries after “also recorded” stand apart in the source; their conditions may differ. Like-named read-outs stand apart in the source and are kept apart here.
Legend:
[1] = Glucose responsiveness in C57BL/6 mice with or without α-methylmannose; type: in vivo
Protocol: FIG. 40A, FIG. 40B, FIG. 40C, and FIG. 40D show in vivo activity of insulin B:P28N des(B30) analogues with an N-glycan attached to position B28. C57BL/6 mice at 12 weeks of age were fasted two hours before dosed with insulin des(B30) analogues with GS2.1 or GS5.0 N-glycan compositions by s.c injection. The effect on blood glucose was determined as a function of time in the absence and presence of α-methylmannose. FIG. 40A: vehicle; FIG. 40B: GS5.0; FIG. 40C: GS2.1; and FIG. 40D: summarizes the results.
To study the glucose responsiveness of the GS2.1 and GS5.0 insulin analogues, C57BL/6 mice at 12 weeks of age were fasted two hours before dosed with GS2.1 or GS5.0 by s.c injection. At the same time, animals received i.p. administration of α-methylmannose solution (21.5% w/v in saline, 10 ml/kg) or vehicle. […] Blood glucose was measured using a glucometer (OneTouch Ultra LifeScan; Milpitas, Calif.) at time 0 and then 30, 60, 90, and 120 minutes post injection. Glucose Area-Over-the-Curve (AOC) was calculated using values normalized to glucose of time 0 (as 100%).

[2] = mouse, in vivo
[3] = Glucose levels during mouse ITT; type: in vivo
insulin receptor (IR) [4] = target: T1, insulin receptor (IR) (Homo sapiens, UniProt P06213); experiment: In vitro insulin receptor binding (FIG. 5A)
Text: (§1) FIG. 5A, FIG. 5B, FIG. 5C, and FIG. 5D show[s] in vitro activities of the two N-glycosylated insulin analogues at the insulin and insulin-like growth factor (IGF-1) receptors.
(§2) N-glycans provide a means for modulating IR binding. […] The sialylated N-glycans extended the PK of the insulin relative to insulin analogues having non-sialylated N-glycans. However, the extended PK is balanced by the reduced binding at the IR. […] In light of the examples shown herein, modulating insulin-IR interactions can be accomplished by providing glycosylated insulin analogues in which one or more N-glycans have been added to the molecule by N-linked glycosylation in vivo or by attaching one or more of the N-glycans to the insulin molecule in vitro or a combination of both.

[5] = Circulating insulin analogue levels during insulin tolerance test (ITT); details: FIG. 3A/3B
IGF-1R = IGF-1R (Homo sapiens, UniProt P08069); experiment: IGF-1 receptor binding (FIG. 5B)
Text: as §1
Published studies have shown insulin to have a reduced interaction with IGF-1R when it contains a net negative charge at the end of the B-chain (Slieker et al., op. cit.). Therefore, we hypothesized that an N-glycosylated insulin analogue having sialic acid terminated-N-glycans would have reduced IGF-1R binding.

insulin receptor (IR) [6] = target: T1, insulin receptor (IR); experiment: In vitro insulin receptor phosphorylation / IR signaling assay (FIG. 5C); type: cell-based
Text: as §1, §2

Row | Substance | Percent glucose AOC in the presence and absence of α-methylmannose ([1]; AOC normalized to glucose at time 0) | Blood glucose lowering, dosed alone ([1]; s.c., i.p. vehicle, 0-120 min, GS5.0 at 18 nmol/kg) | Blood glucose lowering in the presence of α-methylmannose ([1]; s.c., i.p. α-methylmannose 21.5% w/v, 10 ml/kg) | AUC of circulating insulin analogue levels [2] | In vivo glucose-lowering activity ([3]; FIG. 4) | In vitro IR binding (insulin receptor (IR) [4]) | AUC of circulating insulin analogue levels [5] | AUC of circulating insulin analogue levels ([5]; listed as sialic acid-terminated glycoform) | IGF-1R binding affinity (IGF-1R) | In vitro IR signaling activity (insulin receptor (IR) [6]) | In vivo glucose-lowering activity ([3]; FIG. 4, listed as sialic acid-terminated glycoform)
1 | GS5.0: insulin heterodimer, native A-chain, des(B30) B:P28N B-chain, Asn28 attached to a G2 N-glycan (SEQ ID NO:295) | no change was detected | lowered glucose during 120 min study period | no detectable additional effect on glucose lowering | statistically significant improvements in AUC relative to mature NOVOLIN | retained activity at the insulin receptor |  |  |  |  |  | 
2 | GS6.0: insulin heterodimer, native A-chain, des(B30) B:P28N B-chain, Asn28 attached to an A2 N-glycan (SEQ ID NO:294) |  |  |  |  |  | reduced binding activity to IR | statistically significant improvements in AUC relative to mature NOVOLIN | even greater AUC measurements relative to the galactose-terminated glycoform | interacts with IGF-1R with even less affinity than NOVOLIN | reduced activity | retained activity at the insulin receptor; also recorded: longest glucose-lowering activity of all des(B30) samples

Source: patent publication US20160289290A1, “N-GLYCOSYLATED INSULIN ANALOGUES” (Merck Sharp & Dohme Corp., priority 2011, published 2016)
